# Measured values: paper doi:10.1101/2020.04.07.029900, “Pat1 increases the range of decay factors and RNA bound by the Lsm1-7 complex” (bioRxiv, 2020)
# Experiments:
# Lsm1-7 complex = target: T1, Lsm1-7 complex (S. pombe, UniProt P87173 1-140; O94408 1-96; Q9Y7M4 1-93; O14352 1-121; O42978 1-80; Q9UUI1 1-75; …); assay: SEC; PatMC co-expressed with His6-Lsm1-7 in E. coli, co-purified on Ni-NTA and heparin, TEV, then preparative Superdex 200 16/60 in 400 mM NaCl, 20 mM HEPES 7.0, 1 mM DTT; SDS-PAGE of the complex; settings: both partners purified
# T1 construct: Lsm1, S. pombe; from a polycistron of all seven Lsm proteins; Lsm2, S. pombe; Lsm3, S. pombe; Lsm4, S. pombe; Lsm5, S. pombe; Lsm6, S. pombe; Lsm7, S. pombe; Expected mass of the monomeric complex 81 kDa; In the droplet experiment 0.1 uM of it carried Alexa Fluor 555 maleimide; In the co-purification with PatMC the His6 tag on Lsm1 was present on Ni-NTA and cut by TEV before gel filtration; also …
# [1] = target: the molecule itself; assay: AUC; sedimentation velocity, 9.3 uM PatMC/Lsm1-7 with stoichiometric A15 RNA, 250 mM NaCl, 20 mM HEPES pH 7.0, 1 mM DTT, 30,000 rpm, 10-12 hours
# [2] = target: the molecule itself; assay: AUC; sedimentation velocity, 9.3 uM PatMC/Lsm1-7 without RNA, 250 mM NaCl, 20 mM HEPES pH 7.0, 1 mM DTT, 30,000 rpm, 10-12 hours
# T1 sequence (Q9Y7M4 whole entry, chain 3 of 2): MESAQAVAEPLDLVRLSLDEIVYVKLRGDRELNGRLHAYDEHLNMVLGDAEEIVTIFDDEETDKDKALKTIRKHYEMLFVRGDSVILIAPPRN
# T1 sequence (O42978 whole entry, chain 5 of 2): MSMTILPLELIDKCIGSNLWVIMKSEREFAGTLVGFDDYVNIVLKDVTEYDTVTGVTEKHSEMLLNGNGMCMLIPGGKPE
Binder,binding result (Lsm1-7 complex),stoichiometry N [1],stoichiometry N [2]
"PatMC (middle and C-terminal domains of Pat1, residues 296-754) (domain or fragment, S. pombe, UniProt O42958 296-754, looked up, Pat1, S. pombe, middle and C-terminal domains (PatMC), residues 296-754; codon optimized gene in site two of pET-Duet; No tag is told for PatMC in the co-expression construct; source: E. coli BL21(DE3)*, co-expressed with Lsm1-7 from pET-Duet, co-purified (Ni-NTA, heparin, Superdex 200)) LDEKRQKLERDHMLMAQCAGLMTRSDKSFIARIQISQLMSEDPESDDFYYRVYSIIRGRKPSEEEASHFIQTYLGPSNNRRRGRRSENPMQKLQQQLQRLVSSAKERPKATQLSLEGALGKIAVNTVRTPRQLLNVKRPTEPASSNSSLNNFSGFSTKKDVLHAIEKVYDLLLDFEQALRKASTLETTDQEQIDTWKTTLSEKLESIWKALYINESLEASSKTRPPFISIISHPKGMRLLPRLFPHLSKEQQISILKVVVYNFDSLDIVLRGTFDVNGELPLDVVSEMSSFTQFIIPPLLTIVNELDLETINNLFSQLLNRTNAVYLIQTKIGLSFLTLFISRAEILKQSGTVNQNEKEEWENTFNVMFNRVKGHFSTVFPPPNARAYADESYPWEFLAACATAASSEQHFTLVSETRDRVLDNIITSKRAPSEIAVVRISNVNLFLNAMGLDARQLSA",binds,–,–
"PatMC/Lsm1-7 complex (complex, Pat1, S. pombe, middle and C-terminal domains (PatMC), residues 296-754; codon optimized gene in site two of pET-Duet; Lsm1, S. pombe; from a polycistron of all seven Lsm proteins; Lsm2, S. pombe; Lsm3, S. pombe; Lsm4, S. pombe; Lsm5, S. pombe; Lsm6, S. pombe; Lsm7, S. pombe; Heterooctamer, expected mass of the monomeric complex 133 kDa; TEV was added before gel filtration to remove the His6 tag …) chain 1: LDEKRQKLERDHMLMAQCAGLMTRSDKSFIARIQISQLMSEDPESDDFYYRVYSIIRGRKPSEEEASHFIQTYLGPSNNRRRGRRSENPMQKLQQQLQRLVSSAKERPKATQLSLEGALGKIAVNTVRTPRQLLNVKRPTEPASSNSSLNNFSGFSTKKDVLHAIEKVYDLLLDFEQALRKASTLETTDQEQIDTWKTTLSEKLESIWKALYINESLEASSKTRPPFISIISHPKGMRLLPRLFPHLSKEQQISILKVVVYNFDSLDIVLRGTFDVNGELPLDVVSEMSSFTQFIIPPLLTIVNELDLETINNLFSQLLNRTNAVYLIQTKIGLSFLTLFISRAEILKQSGTVNQNEKEEWENTFNVMFNRVKGHFSTVFPPPNARAYADESYPWEFLAACATAASSEQHFTLVSETRDRVLDNIITSKRAPSEIAVVRISNVNLFLNAMGLDARQLSA chain 2: MNQATQIIPFTTSGSLVDYVDRKVIVVLRDGKKLIGILRSFDQFANLMLQYTIERIYVDDMYGDIDRGVYIVRGENVVLLGELDLDKEYDAVKQLRRMPAEELYPLAKLHEEEKKKNIREKGKYLHSVGFSVDGGHDDLY chain 3: MLFYSFFKTLIDTEVTVELKNDMSIRGILKSVDQFLNVKLENISVVDASKYPHMAAVKDLFIRGSVVRYVHMSSAYVDTILLADACRRDLANNKRQ chain 4: not shown chain 5: MLPLTLLNATQGRPILVELKNGETFNGHLENCDNYMNLTLREVIRTMPDGDKFFRLPECYIRGNNIKYLRIQDEVLSQVAKQQAQQRENRGSRFRGRGQRGRGNYGHTAPNRRGRGRGGHM chain 6: not shown chain 7: MDSSPNEFLNKVIGKKVLIRLSSGVDYKGILSCLDGYMNLALERTEEYVNGKKTNVYGDAFIRGNNVLYVSALDD chain 8: MSSLQKRPGPGNSSQPTERPRKESILDLSRYQDQRIQATFTGGRQITGILKGFDQLMNLVLDDVEEQLRNPEDGKLTGAIRKLGLVVVRGTTLVLIAPMDGSEEIPNPFVQAE",–,4,2
